Assay results reported in the nanobody polyreactivity screen of Harvey et al. (2022).

Assay: yeast display, Sf9 membrane polyspecificity reagent, FACS + sequencing; frameworks hold sequencing errors
In short: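 After 36–48 hours of galactose induction, yeast (Saccharomyces cerevisiae BJ5465) displaying a synthetic nanobody library were stained at 4 °C for 1 hour with 10% biotinylated, detergent-solubilized Sf9 membrane reagent. Streptavidin microbeads enriched the stained cells before FACS sorting into low and high (top ~1%) gates on anti-HA and streptavidin fluorescence. Each clone's polyreactivity label reflects its gate of origin.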

Sequence | polyreactivity (PSR sort gate)
QVQLVESGGGLVQAGGSLRLSCAASGSIFRSYAMGWYRQAPGKERELVASISRRGGSTYYADSVKGRFTISRDNAKNTVYFQMNSLKPEDTAVYYCAAVRYNSRVSTTPSEMYYWGQGTLVTVSS | low polyreactivity
QVQLVESGGGLVQAGGSLRLSCAASGSIFRSYDMGMYRQAPGKERELVADITRTGGNTYYADSVKGRFTISRDNAKNTVYLQMNSLKPEDTAVYYCAATYILTVSVFSYVWPYDYWGQGTQVTVSS | high polyreactivity
QVQLVESGGGLVQAGGSLRLSCAASGSIFRSYTMGWYRQAPGKEREFVAAITKRGGSTYYADSVKGRFTISRDNAKNTVYLQMNSLKPEDTAVYYCAAVAGHYYYFRELGYWGQGTQVTVSS | high polyreactivity
QVQLVESGGGLVQAGGSLRLSCAASGSIFRSYVMGWSRQAPGKERELVAAISRRGVRTFYADSVKGRFTISRDNAKNTVYLQMNSLKPEDTAVYYCAAQPYKGTGYDYWGQGTQVTVSS | high polyreactivity
QVQLVESGGGLVQAGGSLRLSCAASGSIFRTYAMGWYRQSPGKERELVAAITSDGSTYYADSVKGRFTISRDNAKNTVYLKMNRLKPEDTAVYYFAAASQEYDYHYYYWGQGTQVTVSS | low polyreactivity
QVQLVESGGGLVQAGGSLRLSCAASGSIFRVNAMGWYRQAPGKERELVAAISRRGGRRYYADSVKGRFTISRDNAKNTVYLQMNSLKPEDTAVYYCAAGVSVSASPYNGFDYWGQGTQVTVSS | high polyreactivity
QVQLVESGGGLVQAGGSLRLSCAASGSIFRVYAMGWYRQAPGKERELVASISRRGGSTYYADSVKGRFTISRDNAKNTVYLQMNSLKPEDTAVYYCAAEFVIGGHGYDYWGQGTQVTVSS | high polyreactivity
QVQLVESGGGLVQAGGSLRLSCAASGSIFRVYAMGWYRQAPGKERELVAVGSTYYADSVKGRFTISRDNAKNTVYLQMNSLKPEDTAVYYCARRGKSRYSYHYWGQGTQVTVSS | high polyreactivity
QVQLVESGGGLVQAGGSLRLSCAASGSIFRVYMGWYRQAPGKERALVATIRWSSGSTYYADSVKGRFTISRDNAKNTVYLQMNSLKPEDTAVYYCAVKGPYYDDYDYWGQGTQGTVSS | low polyreactivity
QVQLVESGGGLVQAGGSLRLSCAASGSIFRWYAMGWYRQAPGKERELVAAISKSGGTTYYADSVKGRFTISRDNAKNTVYLQMNSLKPEDTAVYYCAARRYPYGGYGYRYDYWGQGTQVTVSS | high polyreactivity
QVQLVESGGGLVQAGGSLRLSCAASGSIFRWYAMGWYRQAPGKERELVAAITWSASRTYYADSVKGRFTISRDTAKNTVYLQMNSLKPEDTAVYYCAADHDGPYAGYDSWRQGTQVTVSS | low polyreactivity
QVQLVESGGGLVQAGGSLRLSCAASGSIFRYNAMGWYIQAPGKERELVAAISWNGARTYYADSVKGRFTISRDNAKNTVYLQMNSLKPEDTAVYYCNAGTFTRRRGLDYWGQGTQVTVSS | low polyreactivity
QVQLVESGGGLVQAGGSLRLSCAASGSIFRYNAMGWYRPAPGTERELVAAITSGDSTYYADSVKGRFTISRDNAKNTVYLHMNSLKPEDTAVYYCARRSYATYSFRFDYWGQGTQVTVSS | low polyreactivity
QVQLVESGGGLVQAGGSLRLSCAASGSIFRYNAMGWYRQAPGTEREVVAGITSGGDTNYADSVKGRFTISRDNAKNTVYLQMNSLKPEDTAVYYCAKRWYGGRRYDYWGQGTQVTVSS | low polyreactivity
QVQLVESGGGLVQAGGSLRLSCAASGSIFRYNTKGWYRQATGKERELDAAINWSGGNTYYADSVKGRFTISRDNAKNTVYLQMNSLKPEDTAVYYCAARWPSYVSYRYYTKYDYWGQGTQVTVSS | high polyreactivity
QVQLVESGGGLVQAGGSLRLSCAASGSIFRYNTMGWYRQAPGKVRELVATITRRGGSTYYADSVKGRFTISRDNAKNTVYLQMNSVKPEDTAVYYCIADNFGGPYNYWGQGTQVTVSS | low polyreactivity
QVQLVESGGGLVQAGGSLRLSCAASGSIFRYYAKGWSRQAPGKERELVAAISRSGGSTYYADSVKGRFTISRDNAKNTVYLQMKSLKPEDTAVYYCAAEYRVRAQGYVYWGQGTQVTVSS | high polyreactivity
QVQLVESGGGLVQAGGSLRLSCAASGSIFRYYAMGWYIQAPGKEMELVAAITSSGGSTYYADSVKGRFTISRDNAKNTVYLQMNSLKPEDTAVYDCNARHVRYSRRENDYWGQGTQGTVSS | high polyreactivity
QVQLVESGGGLVQAGGSLRLSCAASGSIFRYYAMGWYRPAPGKERELVAAISSRGGRTYYADSVKGRFTISRDNAKNTVYLQMNSLIPEDTAVYYCAARRYRYTTPFRYGYDYWGQGTQVTVSS | high polyreactivity
QVQLVESGGGLVQAGGSLRLSCAASGSIFRYYAMGWYRPAPGKERELVARISATGASTYYADSVKGRFTISRDNAKNTVYLQMNSLKPEDTAVYYCAAGGRSRWGRYSPYDYWGQGTQVTVSS | high polyreactivity
QVQLVESGGGLVQAGGSLRLSCAASGSIFRYYAMGWYRQAHGKERELVAVITSSGTSTYYADSVKGRFTISRDNAKNTVYLQMNSRKPEDTAVDYCAVYPIIYGRMDSWGQGTQVTVSS | low polyreactivity

Sequence | polyreactivity (PSR sort gate)
QVQLVESGGGLVQAGGSLRLSCAASGSIFRYYAMGWYRQAPGKEREFDASITYRGGRTYYADSVKGRFTISRDNAKNTVYLQMNSLKPEDTAVYYCAARTRAGAWTSKYHDYWGQGTQVTVSS | high polyreactivity
QVQLVESGGGLVQAGGSLRLSCAASGSIFRYYAMGWYRQAPGKERELVAAISSNGGSTYYADSVKGRFTISRDNAKNTVYLQMNSLKPEDTAVYYCAALFRRAPGYYWGQGTQVTVSS | high polyreactivity
QVQLVESGGGLVQAGGSLRLSCAASGSIFRYYAMGWYRQAPGKERELVASISSGAGSTYYADSVKGRFTISRDNAKNTVYLQMNSLKPEDTAVYYCAARPGYSAFYYWGQGTQVTVSS | high polyreactivity
QVQLVESGGGLVQAGGSLRLSCAASGSIFRYYAMGWYRQAPGKERELVASITRRGGSTYYADSVKGRFTISRDNAKNTVYLQMTSLKPEDTAVYYCAAHKTYVRDYYWGQGTQVTVSS | high polyreactivity
QVQLVESGGGLVQAGGSLRLSCAASGSIFRYYAMGWYRQAPWKERELVADISSGGSTYYADSVKGRFTISRDNAKNTVNLQMISQKPEDTAVYYCNDDYYAYPWTNDYWGQGTQVTVTS | high polyreactivity
QVQLVESGGGLVQAGGSLRLSCAASGSIFRYYDMGWYRQAPGKERELVAAISDSTGTTYYADSVKGRFSISRDNAKNTVYLQMNSLKPEDTSVDYCTAGYDPRYDYWGQGTQVTVSS | high polyreactivity
QVQLVESGGGLVQAGGSLRLSCAASGSIFSANAMGWYRQAPGKERELVAAINSGGGTYYADSVKGRFTISRDNAKNTVFLQMNSLKPEDTAVYYCATDAVYIKGKYYTHEYWGQGTQVTVSS | high polyreactivity
QVQLVESGGGLVQAGGSLRLSCAASGSIFSANAMGWYRQAPGKERELVAAISDGGAATYYADSVKGRFTISRDNAKHTVYLQMNSLKPEDTAVYYCIADDAFWTVVDGNWRYEYDYWGQGTQVTVSS | low polyreactivity
QVQLVESGGGLVQAGGSLRLSCAASGSIFSANARGWYRQAPGKERELVASITGDGSTNYADSVKGRFTISRDNAKNPGYLQMNSLKPEDTAVYYCAADIGSWYDYWGQGTQVTGSS | low polyreactivity
QVQLVESGGGLVQAGGSLRLSCAASGSIFSAYAMGWSRQAPGKERELVASITTDGGITYYADSVKGRFTISRDNAKNTVYLQMNSLKPEDTAVYYCAVLQYYYPYYYWGQGTQVTVSS | low polyreactivity
QVQLVESGGGLVQAGGSLRLSCAASGSIFSAYAMGWYRQAPGKEREFVASITWSGGSTYYADSVKGRFTISRDNAKNTVYLQMNSLKPEDTAVYYCAAVYVTWYNNYEYWGQGTQVTVSS | high polyreactivity
QVQLVESGGGLVQAGGSLRLSCAASGSIFSAYAMGWYRQAPGKERELVAAISSRGGSTYYADSVKGRFTISRDNAKNTVYLQMNSLKPEDTAVDYCAARVRHSAYDYWGQGTQVTVSS | high polyreactivity
QVQLVESGGGLVQAGGSLRLSCAASGSIFSAYAMGWYRQAPGKERELVAAITKSSVTYYADSVKGRFTISRDNAKNTVYLQMNSLKPEDTAVYYCAAYSPRPSDLYSPIAYYYWGQGTQVTVSS | low polyreactivity
QVQLVESGGGLVQAGGSLRLSCAASGSIFSFNAMGWYRQAPGKERELVAAISWRGASTYYADSVKGRFTISRDNAKNTVYLQMNSLKPEDTAVYYCAAESTFILQYSYIYYDGHYDYWGQGTQVTVSS | low polyreactivity
QVQLVESGGGLVQAGGSLRLSCAASGSIFSFYAMVWYRQAPGKERELVADISLTTDSTYADSVKGRFTISRDNAKNTVYLQMNSLKPEDTAVYYCAADFFGTITWYDYWGQGTQVTVSS | low polyreactivity
QVQLVESGGGLVQAGGSLRLSCAASGSIFSFYAVGWYRQAPGKERELVAALSSGGSTYYADSVKGRFTISGDNAKNTVYLQMNSLIPEDTAVYYCAADPYRYNFRAYGWYREGYYWGQGTQVTVSS | low polyreactivity
QVQLVESGGGLVQAGGSLRLSCAASGSIFSGNAMGWYRQAPGKERELVAAISRSGTSTYYADSVKGRFTISRDNAKNTVYFQMNSLKPEDTAVYYCNARSYYTLRSDFYYWGQGTQVTVSS | high polyreactivity
QVQLVESGGGLVQAGGSLRLSCAASGSIFSGNAMGWYRQAPGKERELVAAISSNGGRTYYADSVKGRFTISRDNAKNTVYLQMNSLKPEDTAVYYCAADSGKRRYGYYYWGQGTQVTVSS | high polyreactivity
QVQLVESGGGLVQAGGSLRLSCAASGSIFSGNAMGWYRQAPGKERELVASINRSGGSTYYADSVKGRFTISRDNAKNTVYLQMNSLKTEDTAVYYCAARRVWLAGYDSWGQGTQVTVSS | low polyreactivity
QVQLVESGGGLVQAGGSLRLSCAASGSIFSGNPMGWYRQAPGKERELVAAIDWSGDSTYYADSVKGRFTISRDNAKNTVYLQMNSLKPEDTAVYYCNTVSFSWGYSAYDYWGQGTQVTVSS | low polyreactivity
